Four molecules from patent US20170119913A1 can be followed below.

For assay [1], the target named is T1, delta 2 (DOP) (h), delta2 opioid receptor (human (printed as (h))), P41143.
T1 chain: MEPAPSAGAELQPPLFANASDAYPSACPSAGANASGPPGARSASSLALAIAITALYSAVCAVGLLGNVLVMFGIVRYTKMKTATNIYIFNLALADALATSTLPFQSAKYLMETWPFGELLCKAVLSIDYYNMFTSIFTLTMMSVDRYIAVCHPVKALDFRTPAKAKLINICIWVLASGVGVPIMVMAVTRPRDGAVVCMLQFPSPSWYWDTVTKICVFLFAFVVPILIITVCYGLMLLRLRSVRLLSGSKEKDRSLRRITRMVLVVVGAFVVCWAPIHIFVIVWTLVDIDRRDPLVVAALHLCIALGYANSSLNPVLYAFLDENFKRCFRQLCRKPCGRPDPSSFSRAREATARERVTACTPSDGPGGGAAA
Put plainly: Cerep ExpresSProfile radioligand competition binding, reference compound (agonist radioligand).

Assay [2] deals with NTR1 on HT29 or NTR1-expressing HEK293 cells (UniProt P30989). Put plainly: cell-based or functional assay.
Sequence of NTR1 on HT29 or NTR1-expressing HEK293 cells (P30989 whole entry): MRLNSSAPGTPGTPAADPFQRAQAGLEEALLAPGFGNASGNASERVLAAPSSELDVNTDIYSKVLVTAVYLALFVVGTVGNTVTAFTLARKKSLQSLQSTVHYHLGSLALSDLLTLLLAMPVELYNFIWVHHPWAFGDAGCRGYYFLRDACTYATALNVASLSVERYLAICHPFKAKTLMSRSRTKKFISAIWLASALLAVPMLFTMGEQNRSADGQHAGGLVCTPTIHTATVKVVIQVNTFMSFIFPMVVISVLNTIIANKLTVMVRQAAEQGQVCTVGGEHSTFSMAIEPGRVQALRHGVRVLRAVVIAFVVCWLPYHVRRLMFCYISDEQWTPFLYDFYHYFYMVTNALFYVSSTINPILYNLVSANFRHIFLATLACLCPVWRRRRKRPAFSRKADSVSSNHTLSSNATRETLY
Assay [3] has as its target neurotensin receptor 1 (NTR1), human, prepared from CHO cells recombinantly expressing the human receptor (human) (UniProt P30989). Put plainly: radioligand binding assay (Cerep 0109): displacement of 0.05 nM 125I-(Tyr3-neurotensin) from human NTR1 prepared from CHO cells.

Numbered stars: 1 amine (or outer) side, 2 acyl side, 3 side chain; on linkers, the order of the positions; unused ones are H or OH. Square brackets hold non-standard residues; d marks the D form. * marks the point of attachment. DOTA = O=C(O)CN1CCN(CC(=O)O)CCN(CC(=O)*)CCN(CC(=O)O)CC1; Ttds = O=C(CCC(=O)[*:2])NCCCOCCOCCOCCCN[*:1]; Glutaryl = O=C(CCCC(=O)[*:2])[*:1]; Tle = CC(C)(C)[C@H](N)C(=O)O; 1206 = not defined here; GABA = NCCCC(=O)O

In general, Ki refers to the dissociation constant of the complex between target and ligand, obtained from inhibition or displacement. Low values mean tighter binding, high ones weaker binding. What is called IC50 is the concentration needed to halve the response being measured.

Sequence of neurotensin receptor 1 (NTR1), human, prepared from CHO cells recombinantly expressing the human receptor (human) (P30989 whole entry): as above

In assay [1], YCGFC (modifications not checked) [DPDPE] had a Ki of 2 nM.
Take {1206-Glutaryl}-[Ttds]K(DOTA)[Ttds][GABA]RRPY[Tle]L-OH (reading uncertain) [1206-Glutar-Ttds-Lys(DOTA)-Ttds-GABA-Arg-Arg-Pro-Tyr-Tle-Leu-OH (16)]: in assay [2], the Agonistic Effect EC50 [nM], functional Ca2+ mobilisation assay came to 4 nM and the Antagonistic Effect IC50 [nM], functional Ca2+ mobilisation assay was found to be 3.8 nM. For the same molecule, the IC50 in assay [3] turned out to be 0.14 nM.
In assay [2], {1206-Glutaryl}-[Ttds][Ttds][Ttds]K(DOTA)[Ttds][Ttds][Ttds][GABA][dR]RPY[Tle]L-OH (reading uncertain) [1206-Glutar-Ttds3-Lys(DOTA)-Ttds3-GABA-arg-Arg-Pro-Tyr-Tle-Leu-OH (18)] displayed an Agonistic Effect EC50 [nM], functional Ca2+ mobilisation assay of over 50000 nM and an Antagonistic Effect IC50 [nM], functional Ca2+ mobilisation assay of 3.8 nM. In addition, the concentration for half-maximal inhibition (IC50) in assay [3] came out at 2.7 nM.
Take {1206-Glutaryl}-[Ttds]K(DOTA)[Ttds][GABA][dR]RPY[Tle]L-OH (reading uncertain) [1206-Glutar-Ttds-Lys(DOTA)-Ttds-GABA-arg-Arg-Pro-Tyr-Tle-Leu-OH (17)]: in assay [2], the Agonistic Effect EC50 [nM], functional Ca2+ mobilisation assay worked out at 7 nM and the Antagonistic Effect IC50 [nM], functional Ca2+ mobilisation assay is 3.4 nM. The IC50 in assay [3] amounted to 0.32 nM.
